{"source": "paper PMC3005890", "biological_target": "teichuronic acid synthetase (TUAS) subunit B, 52.5 kDa (Micrococcus luteus (endogenous in ATCC 4698))", "assay": "native gel or EMSA; endogenous TUAS co-purified from detergent-solubilised membranes; the active ~440 kDa band on a 3-12% native gradient polyacrylamide gel is separated by 9.5% SDS-PAGE into the 54 kDa and 52.5 kDa subunits; the complex carries lipids and pigments", "data": [{"substance": "teichuronic acid synthetase (TUAS) subunit A, 54 kDa (natural protein)", "values": [{"measurement": "stoichiometry N", "value": 8}]}]}
